Assay in all cases: cell-based or functional assay
Experiment [1] concerns the target recombinant NS3 protease with the NS4A peptide cofactor … (molar ratio enzyme:cofactor 1:100) (hepatitis C virus genotype 1b).
The target of experiment [2] is recombinant HCV NS3 protease type 1b (amino acid 1027 to 1206) (hepatitis C virus genotype 1b).
The target of experiment [3] is human leukocyte elastase (human) (UniProt P08246).
Experiment [4] has as its target porcine pancreatic elastase (porcine) (UniProt P00772).
The target of experiment [5] is bovine pancreatic α-chymotrypsin (bovine) (UniProt P00766).
For experiment [6], the target named is human liver cathepsin B (human) (UniProt P07858).

As usually defined, the IC50 is the midpoint of a concentration-inhibition curve.

Sequence of human leukocyte elastase (human) (P08246 30-247 limits assumed): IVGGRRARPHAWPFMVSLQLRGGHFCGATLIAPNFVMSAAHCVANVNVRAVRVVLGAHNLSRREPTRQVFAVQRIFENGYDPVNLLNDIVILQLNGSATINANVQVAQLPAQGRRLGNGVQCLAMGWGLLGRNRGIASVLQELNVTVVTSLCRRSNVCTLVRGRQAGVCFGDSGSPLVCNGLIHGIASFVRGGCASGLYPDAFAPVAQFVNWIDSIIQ
Sequence of porcine pancreatic elastase (porcine) (P00772 27-266): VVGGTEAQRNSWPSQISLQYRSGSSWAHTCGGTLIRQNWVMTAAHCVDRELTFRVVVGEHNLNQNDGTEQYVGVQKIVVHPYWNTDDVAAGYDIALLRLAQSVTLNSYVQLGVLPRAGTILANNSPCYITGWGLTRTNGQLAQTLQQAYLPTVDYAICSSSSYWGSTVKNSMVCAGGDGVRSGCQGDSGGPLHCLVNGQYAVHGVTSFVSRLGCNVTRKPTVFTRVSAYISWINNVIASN

“Compound 242 (Table 2): Ac-Chg-Val-Pro((4Br-Ph)S)-Acca (peptide)”: the IC50 in experiment [1] turned out to be 36 µM.
As for “Compound 603 (Table 6): P4 Chg, P3 Val, R13 1-NpCH2O, R14 CH═CH2 (peptide)”, in experiment [1], the IC50 turned out to be 0.36 µM.
As for “Compound 272 (Table 2): Ac-Chg-Val-Pro((3,5-Br2-Ph)CH2O)-Acca (peptide)”, in experiment [1], the half-maximal inhibitory concentration (IC50) was 27 µM.
For the substance “Compound 129 (Table 1): Ac-Asp-Tbg-Ile-Val-Pro-Nva (peptide)”, the IC50 in experiment [2] came out at 270 µM.
As to “Compound 249 (Table 2): Ac-Chg-Val-Pro((4I-Ph)O)-Acca (peptide)”, the IC50 in experiment [1] was 9.7 µM.
Consider “Compound 234 (Table 2): Ac-Chg-Chg-Pro(O-Bn)-Acca (peptide)”, for which the IC50 in experiment [1] worked out at 41 µM.
On to “Compound 519 (Table 5): Ac-Chg-Val-Pro(1-NpCH2O)-P1(R14 Pr; 1R, 2?) (peptide)”, for which, in experiment [1], the IC50 worked out at 3.45 µM.
Still for that read-out and setting: for “Compound 512 (Table 5): Ac-Chg-Val-Pro(1-NpCH2O)-P1(R14 (CH2)2Ph; 1R, 2?) (peptide)” the value was 19.5 µM; for “Compound 508 (Table 5): Ac-Chg-Val-Pro(1-NpCH2O)-P1(R14 CHMe2; 1R, 2?) (peptide)”, 4.15 µM.
Still for that read-out and setting: for “Compound 510 (Table 5): Ac-Chg-Val-Pro(1-NpCH2O)-P1(R14 CH2OCH2Ph; 1R, 2?) (peptide)” the value was 15.5 µM; for “Compound 602 (Table 6): P4 Chg, P3 Chg, R13 1-NpCH2O, R14 CH═CH2 (peptide)”, 0.13 µM.
As for “Compound 604 (Table 6): P4 Chg, P3 Val, R13 OBn, R14 CH═CHBr* (peptide)”, the IC50 in experiment [1] was determined as 2.55 µM.
For the substance “Compound 227 (Table 2): Ac-Chg-Val-Pro(1-NpCH2O)-Acca (peptide)”, in experiment [3], the HLE was greater than 600 µM.
For the substance “Compound 214 (Table 2): Ac-Asp-D-Glu-Chg-Val-Pro(2-NpCH2O)-Nva (peptide)”, the PPE in experiment [4] is greater than 300 µM. Besides, in experiment [3], the HLE was greater than 300 µM. For the same substance, the IC50 in experiment [1] came out at 0.028 µM. Besides, the Other in experiment [5] and in experiment [6] was greater than 300 µM each time.
In the case of “Compound 514 (Table 5): Ac-Chg-Val-Pro(1-NpCH2O)-P1(R14 Et; 1S, 2S) (peptide)”, the concentration for half-maximal inhibition (IC50) in experiment [1] was found to be 27.5 µM.
Regarding “Compound 505 (Table 5): Ac-Chg-Chg-Pro(1-NpCH2O)-P1(R14 Et; 1R, 2R) (peptide)”, the IC50 in experiment [1] was 0.55 µM.
Take “Compound 210 (Table 2): Ac-Asp-D-Glu-Chg-Val-Pro(O-Bn)-Cys (peptide)”: the PPE in experiment [4] was greater than 300 µM. The same substance had an HLE in experiment [3] greater than 300 µM. Moreover, the half-maximal inhibitory concentration (IC50) in experiment [1] was determined as 0.033 µM. In experiment [5], the Other was greater than 300 µM.
“Compound 601 (Table 6): P4 Chg, P3 Val, R13 OBn, R14 CH═CH2 (peptide)”: the half-inhibitory concentration (IC50) in experiment [1] was found to be 3.61 µM.
“Compound 206 (Table 2): Ac-Asp-Asp-Ile-Val-Pro(p-tolyl-methoxy)-Nva (peptide)”: in experiment [2], the IC50 was 6.4 µM.
With “Compound 115 (Table 1): Ac-Asp-Asp-Ile-Val-Abu-Cys (peptide)”, in experiment [2], the IC50 was found to be 58 µM.
In the case of “Compound 503 (Table 5): Ac-Chg-Chg-Pro(1-NpCH2O)-P1(R14 Et; 1R, 2?) (peptide)”, in experiment [3], the HLE turned out to be 250 µM. Also, the IC50 in experiment [1] turned out to be 1.35 µM.
In the case of “Compound 240 (Table 2): Ac-Chg-Val-Pro((3Br-Ph)O)-Acca (peptide)”, in experiment [1], the half-inhibitory concentration (IC50) was 42 µM.
“Compound 520 (Table 5): Ac-Chg-Val-Pro(1-NpCH2O)-P1(R14 Pr; 1R, 2?) (peptide)”: in experiment [1], the IC50 was 22.5 µM.
Take “Compound 205 (Table 2): Ac-Asp-Asp-Ile-Val-Pro(m-tolyl-methoxy)-Nva (peptide)”: the IC50 in experiment [2] stood at 6.7 µM.
Take “Compound 501 (Table 5): Ac-Chg-Val-Pro(OBn)-P1(R14 Et; 1R, 2R) (peptide)”: the IC50 in experiment [1] worked out at 17.1 µM.
The same measure, in the same setting: for “Compound 239 (Table 2): Ac-Chg-Val-Pro((2Br-Ph)O)-Acca (peptide)” the value was 27 µM.
Turning to “Compound 212 (Table 2): Ac-Asp-D-Glu-Ile-Val-Pro(O-Bn)-Acca (peptide)”, the PPE in experiment [4] was greater than 300 µM. The HLE in experiment [3] was greater than 300 µM. The IC50 in experiment [1] is 0.21 µM.
As to “Compound 507 (Table 5): Ac-Chg-Val-Pro(1-NpCH2O)-P1(R14 Me; 1R, 2?) (peptide)”, the half-maximal inhibitory concentration (IC50) in experiment [1] turned out to be 5.1 µM.
In turn, “Compound 518 (Table 5): Ac-Asp-D-Glu-Chg-Val-Pro(1-NpCH2O)-P1(R14 Et; 1R, 2R) (peptide)” yielded an HLE in experiment [3] greater than 300 µM. For the same substance, the IC50 in experiment [1] came out at 0.011 µM.
For “Compound 502 (Table 5): Ac-Chg-Val-Pro(OBn)-P1(R14 Et; 1R, 2?) (peptide)”, the IC50 in experiment [1] amounted to 12.6 µM.
As to “Compound 268 (Table 2): Ac-Chg-Val-Pro((3Br-Ph)CH2O)-Acca (peptide)”, in experiment [1], the IC50 turned out to be 24 µM.
Substance “Compound 513 (Table 5): Ac-Chg-Val-Pro(1-NpCH2O)-P1(R14 Et; 1R, 2R) (peptide)” displayed an HLE in experiment [3] greater than 300 µM.
Substance “Compound 123 (Table 1): Ac-Asp-Asp-Ile-Val-Pro-Nva (peptide)” displayed a PPE in experiment [4] greater than 300 µM. This substance showed an HLE in experiment [3] greater than 300 µM. The IC50 in experiment [1] came out at 220 µM.
Turning to “Compound 232 (Table 2): AcOCH2-C(O)-Chg-Chg-Pro(1-NpCH2O)-Acca (peptide)”, the IC50 in experiment [1] came to 1.4 µM.
“Compound 506 (Table 5): Ac-Chg-Chg-Pro(1-NpCH2O)-P1(R14 Et; 1S, 2S) (peptide)” came in with an HLE in experiment [3] greater than 400 µM.
Take “Compound 114 (Table 1): Ac-Asp-Asp-Ile-Chg-Pro-Cys (peptide)”: in experiment [2], the IC50 turned out to be 50 µM.
“Compound 516 (Table 5): Ac-Chg-Val-Pro(1-NpCH2O)-P1(R14 Bz; 1R, 2?) (peptide)”: the IC50 in experiment [1] was 46.5 µM.
In experiment [4], “Compound 203 (Table 2): Ac-Asp-D-Glu-Ile-Val-Pro(O-Bn)-Nva (peptide)” returned a PPE greater than 300 µM. Also, the HLE in experiment [3] was greater than 300 µM. Besides, the IC50 in experiment [1] turned out to be 0.6 µM. For the same substance, the Other in experiment [6] is greater than 300 µM.
“Compound 235 (Table 2): Boc-Chg-Chg-Pro(1-NpCH2O)-Acca (peptide)”: the concentration for half-maximal inhibition (IC50) in experiment [1] worked out at 12 µM.
As for “Compound 238 (Table 2): Ac-Chg-Val-Pro((4Br-Ph)O)-Acca (peptide)”, in experiment [3], the HLE was 195 µM. In addition, the 50% inhibitory concentration (IC50) in experiment [1] came out at 27 µM.
In the case of “Compound 231 (Table 2): Ac-Chg-Chg-Pro(1-NpCH2O)-Acca (peptide)”, the half-maximal inhibitory concentration (IC50) in experiment [1] came to 2.6 µM.
Regarding “Compound 511 (Table 5): Ac-Chg-Val-Pro(1-NpCH2O)-P1(R14 CH2OCH2Ph; 1R, 2?) (peptide)”, the half-inhibitory concentration (IC50) in experiment [1] came to 32.5 µM.
For the substance “Compound 204 (Table 2): Ac-Asp-Asp-Ile-Val-Pro(o-tolyl-methoxy)-Nva (peptide)”, the IC50 in experiment [2] is 9.4 µM.
“Compound 521 (Table 5): Ac-Asp-D-Val-Chg-Val-Pro(1-NpCH2O)-P1(R14 Et; 1R, 2R) (peptide)” gave an HLE in experiment [3] greater than 300 µM. The IC50 in experiment [1] is 0.024 µM.
“Compound 515 (Table 5): Ac-Chg-Val-Pro(1-NpCH2O)-P1(R14 Bz; 1R, 2?) (peptide)”: in experiment [1], the IC50 is 9.2 µM.
“Compound 509 (Table 5): Ac-Asp-D-Glu-Chg-Chg-Pro(1-NpCH2O)-P1(R14 Et; 1R, 2R) (peptide)”: in experiment [3], the HLE was greater than 300 µM. In addition, in experiment [1], the IC50 worked out at 0.015 µM.
On to “Compound 504 (Table 5): Ac-Chg-Chg-Pro(1-NpCH2O)-P1(R14 Et; 1R, 2?) (peptide)”, for which the 50% inhibitory concentration (IC50) in experiment [1] worked out at 9.53 µM.
For the substance “Compound 252 (Table 2): Ac-Chg-Val-Pro(1-NpCH2O)-Nva (peptide)”, the IC50 in experiment [1] amounted to 20 µM.
On to “Compound 127 (Table 1): Ac-Asp-Asp-Ile-Val-Pip-Nva (peptide)”, for which the IC50 in experiment [2] came out at 605 µM.
Turning to “Compound 110 (Table 1): Ac-Asp-Asp-Chg-Val-Pro-Cys (peptide)”, the half-maximal inhibitory concentration (IC50) in experiment [2] stood at 24 µM.
